Results taken from paper doi:10.1101/2025.02.13.638105.
Like-named read-outs stand apart in the source and are kept apart here.

Tests used:
[1] = biological target: human recombinant wildtype neurofibromin isoform I (human) (UniProt P21359); assay: cryo-EM structure
[2] = biological target: human recombinant wildtype neurofibromin isoform I (human) (UniProt P21359); assay: cryo-EM structure; remark: listed apart in the source

- stoichiometry N [1]: 2
- dimers per tetramer (counts of single particles) [2]: 4
- stoichiometry N [2]: 4
Substance: human recombinant wildtype neurofibromin isoform I, P21359-2 1-2818
